Experimental data reported in the supplement of paper PMC12764529.
± gives the half width of the 95% confidence interval.

Tests used:
[1] = folding stability dG unfold from trypsin proteolysis; higher = more stable
In short: (§1)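 K50 was inferred by Bayesian fitting of sequencing counts obtained after protease digestion of designed mini-proteins. Unfolding free energy was derived by comparison with a sequence-predicted unfolded-state K50 and a shared folded-state K50, for each protease or both combined. The mini-proteins were under 80 residues, had no cysteine, were carried in a PA-tagged cDNA display construct, and were kept only if AlphaFold2 dimer inter-PAE exceeded 15.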

[2] = folding stability dG unfold from chymotrypsin proteolysis; higher = more stable
In short: as §1

[3] = folding stability dG unfold (combined trypsin and chymotrypsin); higher = more stable
In short: as §1

Row | Sequence | folding stability dG unfold [1] [kcal/mol] | folding stability dG unfold [2] [kcal/mol] | folding stability dG unfold [3] [kcal/mol]
1 | AATTATVTLPFAPDDLDAAVEAARELASTLPPDSRITVAVPAPDGSTGTVTATVHPDGTIDVTVSPAAAPAS [r1_350_TrMRF] | 0.731 ± 0.019 | 1.47 ± 0.04 | 1.19 ± 0.1
2 | AELEAEVVSVEEVNGETVVVVRVDGELVVRTFRPPPPRPLSLEELKRLAEELREQNPELAEEAEKLLEALAS [r1_330_TrROS_Hall] | 2.49 ± 0.12 | 2.19 ± 0.11 | 2.33 ± 0.26
3 | AKLPEGAKVVIEVRRADDGETRTITLDDDVTITITYDKDTGKVEVRAYVFDKNGKLVAEETLTLSLEELLSS [r1_380_TrROS_Hall] | 1.77 ± 0.027 | 3.508 ± 0.017 | 3.1 ± 0.067
4 | APARPPDWVLVDVPVDPTSGLITVHAGDATVTVDLPDGRPAVFYFPRSVSPSDLLAWVVGKARELAEALRAS [r1_25_TrMRF] | 1.9 ± 0.085 | 2.32 ± 0.19 | 2.23 ± 0.16
5 | APKPPVLVVEVVVLFPKEDPEVRELTVEEIAELAAEELTAHPDFKPVKVEVLSAEEHPDGYYTVTLKVTHVS [r1_484_TrMRF] | 2.51 ± 0.15 | 2.4 ± 0.036 | 2.42 ± 0.1
6 | DLDITDPALVPVPERNYPFTVVSLTGPGNGAVTVELTLDGQTVSATVDPSTGTVTFTFPGTGASAVATADPS [r1_125_TrMRF] | 1.69 ± 0.087 | 1.61 ± 0.08 | 1.68 ± 0.12
7 | DYRVVIEDLELVPAPPGTRISMPAWVDHDGVRYGEVESYVDPETGTVTLRLLVEPDGEPRELTLTLPVPPES [r1_47_TrMRF] | 0.545 ± 0.034 | 0.629 ± 0.061 | 0.625 ± 0.061
8 | EEEVEELAKKLEEELRKKLRELFPEMSEEDIKIEEIEVEKTVTVEVNGEKKEIKVKVKIKMSEEVLERLKKS [r1_299_TrROS_Hall] | 1.98 ± 0.14 | 2.09 ± 0.33 | 1.72 ± 0.42
9 | EITIRNPNGMEVKKVEFDPPDSTIKFEFRMPDYYVKIEFQIYPVGGGWVIPIKIEIVPIPPTPAQRKKMQES [r1_154_TrROS] | 1.44 ± 0.13 | 3.4 ± 0.17 | 2.85 ± 0.25
10 | EVETYPDGTVVTTLPPEVTADIPADEPVNLRTLIFDPDGYLYLSTATRTPDGTVTYTVSITPIPVGPELLLS [r1_394_JUSTAS] | 1.44 ± 0.029 | 1.63 ± 0.083 | 1.54 ± 0.077
11 | GFDEAELKKLLEEKAAELEKKGYKVLKTSIEPVPDGTYGGKIGNKTITHPTPNGLTYSVSVYYEKVSPKKKS [r1_31_JUSTAS] | 0.232 ± 0.13 | 0.331 ± 0.25 | 0.351 ± 0.16
12 | GFVLIPFRLDDPDVTAGEIAEEVEKALPPEYGPLRLRVFFEDGSVLELEPGEKLGEHFEPDDEILVLVEGDS [r1_56_TrMRF] | 1.24 ± 0.042 | 1.37 ± 0.12 | 1.22 ± 0.14
13 | GLAPRVYEVDALVTDENGVPRLYRVLVVETPLPDGTYRAVAFARDLDTTETRVLTLVSDRAVIGPDVPLTAS [r1_14_TrMRF] | 2.07 ± 0.044 | 2.24 ± 0.12 | 2.21 ± 0.15
14 | GMAPKTYTKEVEIKDSSGKPIKYKVTVTETALPDGSSESTITLTDPNSSKTTTINLSSPGKGLTPDDKILLS [r1_14_JUSTAS] | 0.562 ± 0.019 | 1.09 ± 0.087 | 0.899 ± 0.075
15 | GMIVEIVESPEGTVTLYEVLLPGGTPILVGAADEEKLRERVAKELGVSFEKLKITKTTTLSPEELAALLAAS [r1_119_JUSTAS] | 1.4 ± 0.02 | 1.73 ± 0.053 | 1.66 ± 0.14
16 | GMSVTSYETDPNTGGPSISISSAPDPKTGLLSAPVTVYDPKTGQSKTINLTATSSEELAAKIAELLPASLLS [r1_156_JUSTAS] | 1.39 ± 0.024 | 0.166 ± 0.17 | 0.97 ± 0.098
17 | GMVEVTEERFEPETGKRIVTIRAPGRDLTVTFDPSTGIATFYDPSDGRTFTVPFTSLEEAVEAAKELALEES [r1_177_JUSTAS] | 3.1 ± 0.07 | 4.81 ± 0.11 | 4.47 ± 0.11
18 | GPMTVSTKTSTKTYFDPETGVETVVEPVTVTVTFPTSPTVTYTTTVTTTTKVERLPDGPLRTETTTTTTVSS [r1_296_JUSTAS] | -0.135 ± 0.17 | -0.305 ± 0.38 | 0.0169 ± 0.14
19 | KVFSVDELRELAKKGKLKELLKKNKDVTIVVEEGSPEELKELKALPEVKEIKVVPKEDEEKIKKAKLVIKVS [r1_248_TrROS_Hall] | 0.312 ± 0.17 | 0.0786 ± 0.69 | 
20 | MPTIRVKIYRDGKLVRELELPAEEVEKMSEEELLEKVRELLEEEKGETYKVEVEIDGKKFTFEIKLPEKEES [r1_477_TrROS_Hall] | 4.33 ± 0.39 | 4.8 ± 0.24 | 

Row | Sequence | folding stability dG unfold [1] [kcal/mol] | folding stability dG unfold [2] [kcal/mol] | folding stability dG unfold [3] [kcal/mol]
21 | SAGGMLTPEEIERLARELEEAIRRGDRERAEELLEKLEELLKQAEEEGDEELVERLKKLLERAKKALESAGG [r13_137_TrROS_Hall] | 4.85 ± 0.55 | 2.99 ± 0.19 | 
22 | SAGGSAGGSAGEIDKIKVEVEFEFPVRVKVGDKEYEFLVKVKYTIGPDGKIEVKSIELFPSAGGSAGGSAGG [r11_95_TrMRF] | 3.69 ± 0.24 | 4.76 ± 0.38 | 
23 | SAGGSAGGSAGGSFSVSVSYDPSTGNIVIRIDLPDGSTITITINPATGEISVSSSSSSSSAGGSAGGSAGGS [r10_127_TrMRF] | 4.13 ± 0.28 | 3.83 ± 0.25 | 
24 | SAGGSMKTYKLESEEEIEKLIKELSPEKYIVGVKGNPDGTPVVYIFPKSEPEKLKKLGVKEIIPVKSAGGSA [r2_351_JUSTAS] | -0.442 ± 0.46 | -0.109 ± 0.57 | 
25 | SAGKEIKIRIEVTRKVKNPETGEEVEEKEVVEITLSEEELKKGKSLEELAKELASKYPGAKVKIVEIESAGG [r19_110_TrROS_Hall] | 4.43 ± 0.48 | 3.08 ± 0.49 | 
26 | SAGMTVEVEIELPPGMTEEERLEEVKALVEELARALLPPGWKVTVKEIEVEEKDGKLVVKVKIEIEPEESAG [r5_146_TrROS_Hall] | 3.96 ± 0.28 | 2.99 ± 0.22 | 
27 | SARPLTIMNPDGMMYRLDPDEGEIEFQNASDGEELKIKVKPKGNGVEIDIEFNGQPHEHKIPKGDWIMIPSA [r9_239_TrROS] | 0.662 ± 0.088 |  | 0.157 ± 0.33
28 | SASLENGGVKTVEDTEYDPATNTVTFKKVTTYYGDEVLSTSTATVPLPPKPLPPPPVVERDPTNPRYLESAG [r14_571_JUSTAS] | -0.368 ± 0.91 |  | < -1
29 | SDDLSTTVTVTTPGGPTLTLTFPSNASVSTSPIDENSIVITFPGYEAVVEIAPGGKPRLKEVSEKEPVDSSA [r9_773_JUSTAS] | -0.534 ± 0.2 |  | < -1
30 | SDTVHIPIDPNDPDEIKDLIKNLPPGWTVHIWWPDKNGEWPVVTIKVKPPPPPPIPPEDLPEEQRKEMKKSA [r9_1103_TrROS] | 0.398 ± 0.24 | 0.718 ± 0.11 | 
31 | SEALILDPNVETVSPVFYLLLSPEEAEERARELREELRAELEAAGLPLPEDVVIEVVPAESEEELRALLESA [r9_204_JUSTAS] | 0.5 ± 0.049 |  | 0.00109 ± 0.18
32 | SGPDVPLTPEEVAARIKAELLEKHPIGEVTPVELREFPELGVVEVRLRINVKGPPGETREIDVRLSRERLSA [r9_1002_JUSTAS] | 0.694 ± 0.13 |  | 0.0428 ± 0.21
33 | SGSMTPLTVEREVDITVVETRFLPNGGEVKKRRVTVTTTVTLPGGVPVSTQTTTIESPDLSEEEILERLSSA [r9_371_JUSTAS] | 0.357 ± 0.051 |  | -0.752 ± 0.15
34 | SIEELAKKFPNVTVTVEKTEDGEVKITITVKTSEEQKKELQEKLKELAKKLAEELDLKVEIEIKVLPAPPSA [r9_1099_TrROS_Hall] | 3.86 ± 0.26 | 3.7 ± 0.38 | 
35 | SKKWKVDLDIQEDPDNGTVIGMVRVESEDGEKRPPPEEIARELAEKLREKGYKVEAEPHPGWFMITVKPPSA [r9_510_TrROS] | 0.371 ± 0.24 |  | 0.153 ± 0.48
36 | SMPKVVKTVKITKSEAKEFLEKLDIGPDKSVTILETDPNGKSSLHTIGPNKILSSEPVDTLPNTWTIEISSA [r9_849_JUSTAS] | -0.0776 ± 0.13 |  | -0.416 ± 0.35
37 | SMPVTFTMKTPENRKKLEEAIKEIEEEYPIKVEEVEKDPKGTYTYKVEMDPEIIEKVKKKLEEAGNVTLESA [r9_472_JUSTAS] | -0.343 ± 0.23 |  | -0.822 ± 0.97
38 | SMVKAKVEVNPETNAAVVEFELPELKVIALRVFDENNEVHTLVEVEIPPGPRVPLAEIPLKPNEELVLPLSA [r9_1172_TrMRF] | 0.0917 ± 0.26 |  | -0.685 ± 0.76
39 | SSPGLVEVTIPLKIVLEPLAPDGTPAPRPVATVPIKTAASSEDPSAIEQAKEDVIKELKPEFPDAKFVVESA [r9_1112_JUSTAS] | 0.223 ± 0.065 |  | < -1
